The record followed here is patent US11780895B2, “Targeted DNA demethylation and methylation” (The Jackson Laboratory, priority 2016, dated 2023).

The test system of one test is hMLH1 promoter. Briefly: Bisulfite conversion and sequencing of the hMLH1 promoter region. In kind it is cell-based, human. The settings on record: untransfected HEK293T cells treated for 6 days. The text has this: Casilio-mediated delivery of demethylation enzymes alters methylation state of targeted genomic locus. Evidence that the shown Casilio-ME-induced activation of hMLH1 transcription is a result of TET1-mediated cytosine demethylation within the targeted promoter region came from DNA sequencing of hMLH1 promoter after bisulfite conversion. Bisulfite treatment of genomic DNA deaminates unmethylated cytosines to produce uracils that are subsequently replicated as thymine. However, methylated cytosines are protected from conversion to uracils, thus allowing one to determine cytosine methylation states at single-nucleotide resolution by direct sequencing.
To assess changes in methylation states of CpG island within hMLH1 promoter region after Casilio-ME-mediated transcription activation, time course experiment were carried out where cells were collected 3, 4, 5, and 6 days post transfection, for analysis of cytosine methylation as well as transcription activation, and protein expression. HEK293T were transfected with Casilio-ME components that includes Ct-fusion PUFa-TET1 effector and a combination of 2 sgRNAs (RNA guides 3 and 7).
Cell culture and transfection. […]

The test system of a further test is SOX2. Briefly: SOX2 gene expression by quantitative reverse-transcription PCR after targeting Dnmt effectors to the SOX2 promoter. It is filed as cell-based. The settings on record: with dCas9 and sgRNA-PBS targeting SOX2 promoter; compared with dCas9 direct fusions. Here is the method:
Establishment of a dCas9-expressing cell line. The day prior to transfection, Lenti-X 293T cells were seeded into 6-well plates at 1.2 million cells per well. The cells were transfected with the supercoiled packaging plasmids (pLP1 (gag/pol), pLP2 (rev), and VSV-G (envelope)) and a dCas9 lentiviral expression plasmid through Lipofectamine 3000 reagent (Invitrogen). At 6 h posttransfection, medium was exchanged for fresh. At 24 h posttransfection, 2 ml of medium containing the lentivirus were collected and centrifuged for 10 minutes at 2,000 rpm to remove cellular debris. The supernatant was filtered utilizing a […] pore filter (Millipore), and the lentivirus was frozen at −80° C. until needed. HEK293T cells, seeded into a 12-well plate at 150,000 cells per well, were transduced with 500 μl of the dCas9 lentivirus in culture medium supplemented with 5 μg/ml polybrene for 12 hours, and subsequently selected with Blasticidin antibiotics on the third day post transduction.
Transfection. HEK293T, and HEK293T/dCas9 cell lines were seeded into 12-well plates at 150,000 cells per well. […] At 3 day post-transfection, the cells were sorted for GFP (sgRNA expression constructs are marked by GFP) with fluorescence-activated cell sorting (FACS) and re-plated into 12 or 24-well plates.
Quantitative reverse-transcription PCR. […]

A further test concerns TetO::tdTomato transgene. The test can be described thus: TetO::tdTomato transgene activation measured by FACS. It is filed as cell-based. The following applies: with dCas9 and sgTetO-PBS; compared with 5-10 copies. From the text:
In particular, to test whether appending PBS to the 3′ end of sgRNA affects sgRNA function, a series of modified Tet-targeting (sgTetO) or non-targeting control (sgControl) sgRNA were generated, with 0 copy, 5 copies, 15 copies, 25 copies, and 47 copies of the 8-mer Pumilio homologue domain-binding sequence (PBS) for PUF (3-2) (also simply referred to as PUFa) [PBS32 or PBSa: SEQ ID NO:8 (5′-UGUAUgUA-3′)], PUF(6-2/7-2) (also simply referred to as PUFb) [PBS6272 or PBSb: SEQ ID NO:9 (5′-UugAUAUA-3′)].
Cells were transfected with dCas9-VP64 with the different sgRNA scaffolds, and were analyzed by fluorescent-activated cell sorting (FACS) two days after transfection (FIG. 1B).
Fusions of PUF(3-2)::VP64 and PUF(6-2/7-2)::VP64, which interacts with sgRNA (sgRNA-PBS32) with 5′-UGUAUgUA-3′ binding sites and sgRNA-PBS6272 with 5′-UugAUAUA-3′ binding sites, respectively, were created, and their activity to turn on tdTomato expression in conjunction with dCas9 was tested. In addition, two additional pairs, PUFw-VP64 recognizing PBSw (5′-UGUAUAUA-3′) and PUFc-VP64 recognizing PBSc (5′-UugAUgUA-3′), were also constructed to test their ability to activate the same TetO::tdTomato expression in conjunction with dCas9 (FIG. 1D).
Cell Culture for Experiments. HEK293T cells were cultivated in Dulbecco's modified Eagle's medium (DMEM)(Sigma) with 10% fetal bovine serum (FBS)(Lonza), 4% Glutamax (Gibco), 1% Sodium Pyruvate (Gibco) and penicillin-streptomycin (Gibco). Incubator conditions were 37° C. and 5% CO2. For activation experiments, cells were seeded into 12-well plates at 100,000 cells per well the day before being transfected with 200 ng of dCas9 construct, 100 ng of modified sgRNA and 100 ng of PUF-fusion with Attractene transfection reagent (Qiagen). After transfection, cells were grown for 48 hrs and harvested for either RNA extraction or fluorescent-activated cell sorting (FACS). […]
Fluorescent-Activated Cell Sorting. […] Samples were analyzed on a FACScalibur flow cytometer using CellQuest Pro software (BD Bioscience). […] were collected in each run.

`Nc1ncn([C@@H]2O[C@H](CO)[C@@H](O)[C@H]2O)c(=O)n1` [5′azacytidine, 5-Azacytidine]: the “bisulfite conversion frequency within hMLH1 promoter region” value with hMLH1 promoter is listed as “increased bisulfite conversion frequency on multiple CpG sites”.

B1: Dnmt3a-PUF: Dnmt3a catalytic domain fused to the N-terminus of PUFa (protein)
chain: MGPANHDQEFDPPKVYPPVPAEKRKPIRVLSLFDGIATGLLVLKDLGIQVDRYIASEVCEDSITVGMVRHQGKIMYVGDVRSVTQKHIQEWGPFDLVIGGSPCNDLSIVNPARKGLYEGTGRLFFEFYRLLHDARPKEGDDRPFFWLFENVVAMGVSDKRDISRFLESNPVMIDAKEVSAAHRARYFWGNLPGMNRPLASTVNDKLELQECLEHGRIAKFSKVRTITTRSNSIKQGKDQHFPVFMNEKEDILWCTEMERVFGFPVHYTDVSNMSRLARQRLLGRSWSVPVIRHLFAPLKEYFACVIDGGGGSDPKKKRKVDPKKKRKVDPKKKRKVGSTGSRNDGGGGSGGGGSGGGGSGRAGILPPKKKRKVSRGRSRLLEDFRNNRYPNLQLREIAGHIMEFSQDQHGSRFIQLKLERATPAERQLVFNEILQAAYQLMVDVFGNYVIQKFFEFGSLEQKLALAERIRGHVLSLALQMYGSRVIEKALEFIPSDQQNEMVRELDGHVLKCVKDQNGNHVVQKCIECVQPQSLQFIIDAFKGQVFALSTHPYGCRVIQRILEHCLPDQTLPILEELHQHTEQLVQDQYGNYVIQHVLEHGRPEDKSKIVAEIRGNVLVLSQHKFASNVVEKCVTHASRTERAVLIDEVCTMNDGPHSALYTMMKDQYANYVVQKMIDVAEPGQRKIVMHKIRPHIATLRKYTYGKHILAKLEKYYMKNGVDLGDPKKKRKVDPKKKRKVGGRGGGGSGGGGSGGGGSGPA
In the case of B1, in the test on SOX2, the “repression of SOX2 gene expression” value is reported as “more robust repression of SOX2 gene expression compared to direct fusions”.

B2: PUFb-VP64: PUF(6-2/7-2) domain with NLS fused to VP64 (protein)
chain: MGILPPKKKRKVSRGRSRLLEDFRNNRYPNLQLREIAGHIMEFSQDQHGSRFIQLKLERATPAERQLVFNEILQAAYQLMVDVFGNYVIQKFFEFGSLEQKLALAERIRGHVLSLALQMYGCRVIQKALEFIPSDQQNEMVRELDGHVLKCVKDQNGNHVVQKCIECVQPQSLQFIIDAFKGQVFALSTHPYGCRVIQRILEHCLPDQTLPILEELHQHTEQLVQDQYGSYVIEHVLEHGRPEDKSKIVAEIRGNVLVLSQHKFANNVVQKCVTHASRTERAVLIDEVCTMNDGPHSALYTMMKDQYANYVVQKMIDVAEPGQRKIVMHKIRPHIATLRKYTYGKHILAKLEKYYMKNGVDLGGPAGSGRADALDDFDLDMLGSDALDDFDLDMLGSDALDDFDLDMLGSDALDDFDLDMLYID
As to B2, the “transgene activation with 15, 20, and 47 copies of PBS” value in the test on TetO::tdTomato transgene is on record as “slightly lower, albeit still substantial transgene activation”.
